The source of these data is patent US20230248770A1 (published 2023).

The target of experiment [1] is T1, NEF peptide on HLA-A*24:02 (human).
T1 peptide: RYPLTFGWCF
Nature of the experiment: cytokine release.

The target of experiment [2] is T2, WT1 peptide on HLA-A*02:01 (human).
T2 peptide: RMFPNAPYL
Nature of the experiment: activation reporter or marker.

B1: FE11 γδTCR (TCR, V domains shown)
Vgamma: SSNLEGGTKSVTRPTRSSAEITCDLTVINAFYIHWYLHQEGKAPQRLLYYDVSNSKDVLESGLSPGKYYTHTPRRWSWILILRNLIENDSGVYYCATWDRPEIYYKKLFGSGTTLVVT
Vdelta: not shown
B1: the binding result in experiment [1] and in experiment [2] was “no recognition” each time.
